Laboratory results as given in patent publication US20260132208A1 (DOMAIN THERAPEUTICS, published 2026).
“And” between values parts separate entries of the source, which are not always exact repeats. Equal entries are not always repeated. Blank lines part the entries; values can stand above or below the binder they belong to.

Experiments:
[1] = target: T1, human CCR8 (human, UniProt P51685 1-355); experiment: cell-based or functional assay
[2] = target: T1, human CCR8; experiment: cell-based or functional assay; remark: listed apart in the source
[3] = target: T1, human CCR8; experiment: flow cytometry, HUT78 cells (endogenous CCR8)
Description: In human activated T cells model, prior to mAb incubation, cells were first incubated with 200 nM of hCCL1 (R&D Systems, Minneapolis, MN, USA) or buffer PBS (Invitrogen by Thermofisher Scientific, Illkirch-Graffenstaden, France) supplemented by 2% Fetal Bovine Serum (Invitrogen by Thermofisher Scientific, Illkirch-Graffenstaden, France) and 2 mM EDTA (Invitrogen by Thermofisher Scientific, Illkirch-Graffenstaden, France) during 1 hour at 4° C. To determine EC50 value, 8 concentrations of anti-CCR8 mAb were tested. Unbound antibodies were washed away with PBS (Invitrogen by Thermofisher Scientific, Illkirch-Graffenstaden, France) supplemented by 2% Fetal Bovine Serum (Invitrogen by Thermofisher Scientific, Illkirch-Graffenstaden, France) and 2 mM EDTA (Invitrogen by Thermofisher Scientific, Illkirch-Graffenstaden, France). Subsequently, cells are centrifuged (5 min at 400 g) and bound antibody is detected with F(ab′)2-Goat anti-Mouse IgG (H+L) Cross-Adsorbed Secondary Antibody, Alexa Fluor 488 (dilution 1/500) (Invitrogen by Thermofisher Scientific, Illkirch-Graffenstaden, France) or with F(ab′)₂-Goat anti-Human IgG Fc Secondary Antibody, PE (Invitrogen by Thermofisher Scientific, Illkirch-Graffenstaden, France) (dilution 1/1000) at 4° C. for 30 min. Detection reagent is washed away and cells are centrifuged (5 min at 400 g) and resuspended in 30 μL PBS. Bound detection antibody is quantified on a MacsQuant16 (Miltenyi, Gladbach, Germany) (B1 or B2 channel, 5000 events per acquisition). During the experiment, the respective isotype mAb controls (mouse IgG1, mouse IgG2a, mouse IgG2b, mouse IgG3 or human IgG1) (Biolegend, Amsterdam, The Netherlands) are included to exclude any unspecific binding events. EC50 values were determined via nonlinear fit “log (agonist) vs.response—Variable slope (four parameters)” function of Graphpad prism. EC50 values were not constantly determined in the same experiments.
Anti-CCR8 mAb cellular reactivity was also evaluated on native human CCR8 from HUT78 cell line by flow cytometry. In Table 4.3, Mean Fluorescence Intensity (Fold change to isotype control), the percentage of labelled cells and EC50 in nM of some anti-CCR8 antibodies are presented.

[4] = target: T1, human CCR8; experiment: cell-based or functional assay; remark: listed apart in the source
[5] = target: T1, human CCR8; experiment: cell-based or functional assay; remark: listed apart in the source
[6] = target: T1, human CCR8; experiment: cell-based or functional assay; remark: listed apart in the source
[7] = target: T1, human CCR8; experiment: cell-based or functional assay; remark: listed apart in the source
[8] = target: T2, human CCR8 with a SNAP-tag at the N-terminus (human, UniProt P51685 1-355, SNAP-tag labelled covalently with Lumi4-Terbium); experiment: cell-based or functional assay
[9] = target: T3, pwt1 (none (unmodified peptide)); experiment: ELISA on coated peptide [cont.]
T3 construct: also called unmodified CCR8 N-terminal peptide
T3 sequence (peptide, as listed by the source): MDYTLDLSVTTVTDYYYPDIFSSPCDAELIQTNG
Procedure, shortened: (§1)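 Each antibody is tested at 1 μg/mL plus a 1/10 dilution against peptide coated at 500 ng/ml in carbonate/bicarbonate buffer. Binding runs 90 min at room temperature. After washing, TMB substrate is added for 15 min and OD gives the signal.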

[10] = target: T4, pm1 (sulfated tyrosine(s) among Y15, Y16, Y17; which ones is not told (the underlining of Table 1 is lost in the text)); experiment: ELISA on coated peptide [cont.]
T4 construct: also called sulfated CCR8 N-terminal peptide pm1
T4 sequence (peptide, as listed by the source): as above
Procedure, shortened: as §1

[11] = target: T5, pm2 (sulfated tyrosine(s) among Y15, Y16, Y17; which ones is not told (the underlining of Table 1 is lost in the text)); experiment: ELISA on coated peptide [cont.]
T5 construct: also called sulfated CCR8 N-terminal peptide pm2
T5 sequence (peptide, as listed by the source): as above
Procedure, shortened: as §1

[12] = target: T6, pm3 (Y17 sulfated; Y15 and Y16 not sulfated); experiment: ELISA on coated peptide [cont.]
T6 construct: also called sulfated CCR8 N-terminal peptide pm3
T6 sequence (peptide, as listed by the source): as above
Procedure, shortened: as §1

[13] = target: T7, pm4 (sulfated tyrosine(s) among Y15, Y16, Y17; which ones is not told (the underlining of Table 1 is lost in the text)); experiment: ELISA on coated peptide [cont.]
T7 construct: also called sulfated CCR8 N-terminal peptide pm4
T7 sequence (peptide, as listed by the source): as above
Procedure, shortened: as §1

[14] = target: T8, pm5 (Y15 and Y17 sulfated; Y16 not sulfated); experiment: ELISA on coated peptide [cont.]
T8 construct: also called sulfated CCR8 N-terminal peptide pm5
T8 sequence (peptide, as listed by the source): as above
Procedure, shortened: as §1

[15] = target: T9, pm6 (Y16 and Y17 sulfated; Y15 not sulfated); experiment: ELISA on coated peptide [cont.]
T9 construct: also called sulfated CCR8 N-terminal peptide pm6
T9 sequence (peptide, as listed by the source): as above
Procedure, shortened: as §1

[16] = target: T10, pm8 (Y15, Y16 and Y17 sulfated); experiment: ELISA on coated peptide [cont.]
T10 construct: also called sulfated CCR8 N-terminal peptide pm8
T10 sequence (peptide, as listed by the source): as above
Procedure, shortened: as §1

[17] = target: T2, human CCR8 with a SNAP-tag at the …; experiment: HTRF Tag-lite, inhibition of hCCL1-AF647 binding to SNAP-hCCR8 on HEK-293 cells
Description: The inhibition of CCL1 binding to hCCR8 was evaluated with the Tag-Lite® technology from Cisbio (Revvity). Human CCR8 is engineered with a SNAP-tag at the N-terminus of the GPCR. hCCR8 SNAP-tag is transiently transfected on HEK-293 cell line using FuGene® (Promega, Madison, WI, USA). 48 hours after transfection, cells are labeled with the substrate Lumi4-Terbium® (Cisbio, Codolet, France) which covalently reacts with the SNAP-tag, for 1 h at 37° C. Thawed or freshly labeled cells are plated in a 384 low volume white plate (GREINER Bio-One, Courtaboeuf, France) (10000 cells/well/10 μl). […] The Kd was previously obtained in a saturation binding assay on the same cells. […] The plate is next incubated at 21° C. for 2 h. Detection of HTRF signal is performed on the multiplate reader EnVision (PerkinElmer, Waltham, MA, USA). The HTRF (665/620) ratio is calculated by EnVision software, the data exported are considered as the total binding. The specific binding is calculated then by subtracting the non-specific signal from the total binding. The Ki and IC₅₀ are calculated using the “One site-Fit Ki” and “One site-FitlogIC50” from GraphPad Prism 9 (Graphpad Software, San Diego, CA, USA), respectively.

B2: anti-CCR8 mAb 1-34 (antibody, human IgG1, kappa)
heavy: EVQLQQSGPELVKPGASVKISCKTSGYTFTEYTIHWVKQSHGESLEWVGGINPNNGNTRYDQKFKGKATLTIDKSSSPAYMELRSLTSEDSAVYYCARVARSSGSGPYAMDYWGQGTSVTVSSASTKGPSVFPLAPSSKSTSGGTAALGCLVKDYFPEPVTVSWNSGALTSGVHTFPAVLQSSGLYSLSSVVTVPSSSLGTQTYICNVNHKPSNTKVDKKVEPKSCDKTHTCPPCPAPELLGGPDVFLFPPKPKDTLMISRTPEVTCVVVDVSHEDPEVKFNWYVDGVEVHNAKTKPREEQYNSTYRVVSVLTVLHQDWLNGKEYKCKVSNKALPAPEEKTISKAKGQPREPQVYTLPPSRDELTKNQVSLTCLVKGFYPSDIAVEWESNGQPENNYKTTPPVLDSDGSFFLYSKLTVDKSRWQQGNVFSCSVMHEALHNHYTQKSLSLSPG
light: DVVMTQTPLSLPVSLGDQASISCRCTQSLLHTNGDTYLHWYLQKPGQSPKLLIYKVSNRFSGVPDRFSGSGSGTDFTLKISRVEAEDLGVYFCSQSTHVPYTFGGGTKLEIKRTVAAPSVFIFPPSDEQLKSGTASVVCLLNNFYPREAKVQWKVDNALQSGNSQESVTEQDSKDSTYSLSSTLTLSKADYEKHKVYACEVTHQGLSSPVTKSFNRGEC
ADCC % max lysis, HUT78 targets, NK donor 3 [4]: 25% | ADCC % max lysis, HUT78 targets, NK donor 4 [4]: 28% | ADCC EC50, HUT78 targets, NK donor 3 [4]: 0.218 nM | ADCC EC50, HUT78 targets, NK donor 4 [4]: 0.053 nM | ADCP % max phagocytosis, HUT78 targets, MDM donor 9 [2]: 7.27%

B3: anti-CCR8 mAb 1-23 (antibody, human IgG1, kappa, V domains shown)
VH: QVQLVQSGPEVVKPGASVKVSCKTSGYTFTEYTIHWVRQAPGQSLEWVGGINPNNGNTRYDQKFQGRVTITRDKSASTAYMELRSLTSEDTAVYYCARVARSSGSGPYAMDYWGQGTTVTVSS
VL: DVVMTQSPLSLPVTLGDQASISCRCSQSLLHTNGDTYLHWYLQRPGQSPRLLIYKVSNRFSGVPDRFSGSGSGTDFTLKISRVEAEDVGVYFCSQSTHVPYTFGGGTKVEIKR
notes: Humanized mAb, human IgG1 / kappa
IC50 of CCL1-induced hCCR8 Gi2 signaling (BRET, HEK-293) [5]: 0.022 µg/mL and 0.148 nM | residual hCCL1 (100 nM) Gi2 response, protocol #2, mAb 0.08 µg/mL [6]: 67% | residual hCCL1 (100 nM) Gi2 response, protocol #2, mAb 0.4 µg/mL [6]: 55% | residual hCCL1 (100 nM) Gi2 response, protocol #2, mAb 10 µg/mL [6]: 32% | residual hCCL1 (100 nM) Gi2 response, protocol #3, mAb 0.05 µg/mL [6]: 86% | residual hCCL1 (100 nM) Gi2 response, protocol #3, mAb 0.5 µg/mL [6]: 60% | residual hCCL1 (100 nM) Gi2 response, protocol #3, mAb 5 µg/mL [6]: 42% | extrapolated top plateau of hCCL1 curve with 5 µg/mL mAb, protocol #3 [7]: 569000 % of hCCL1 (100 nM) | % hCCR8 internalization with CCL1 300 nM, mAb 1 µg/ml (HTRF) [8]: 44% | % hCCR8 internalization with CCL1 300 nM, mAb 10 µg/ml (HTRF) [8]: 29% | ADCC % max lysis, HUT78 targets, NK donor 3 [4]: 15% | ADCC % max lysis, HUT78 targets, NK donor 4 [4]: 16% | ADCC EC50, HUT78 targets, NK donor 3 [4]: 0.505 nM | ADCC EC50, HUT78 targets, NK donor 4 [4]: 0.573 nM | binding result [9]: binds | binding result [10]: binds | binding result [11]: binds | binding result [12]: binds | binding result [13]: binds | binding result [14]: binds | binding result [15]: binds | binding result [16]: binds | % of labelled cells [3]: 96% | IC50 [17]: 0.04 µg/mL | Ki [17]: 0.02 µg/mL

Continued, values first:

ADCC % max lysis, HUT78 targets, NK donor 1 [1]: 22% | ADCC % max lysis, HUT78 targets, NK donor 2 [1]: 20% | ADCC EC50, HUT78 targets, NK donor 1 [1]: 0.00224 nM | ADCC EC50, HUT78 targets, NK donor 2 [1]: 0.00216 nM | ADCP % max phagocytosis, HUT78 targets, MDM donor 9 [2]: 8.29% | % of labelled cells [3]: 34% | EC50 [3]: 0.4 nM | MFI fold change to isotype ctrl [3]: 2.5 fold
B1: anti-CCR8 mAb 1-26 (antibody, human IgG1, kappa)
heavy: not shown
light: DIVMTQAAPSLSVTPGESASISCTSSKSLLHSNGNTYLYWFLQKPGQSPQLLIYRMSNLASGVPDRFSGSGSGTAFTLKISRVEAEDVGVYYCMQHREYPFTFGSGTKLEIKRTVAAPSVFIFPPSDEQLKSGTASVVCLLNNFYPREAKVQWKVDNALQSGNSQESVTEQDSKDSTYSLSSTLTLSKADYEKHKVYACEVTHQGLSSPVTKSFNRGEC
modifications: afucosylated Fc glycan
notes: Afucosylated humanized mAb; same chains as 1-21

IC50 of CCL1-induced hCCR8 Gi2 signaling (BRET, HEK-293) [5]: 0.034 µg/mL and 0.224 nM | residual hCCL1 (100 nM) Gi2 response, protocol #2, mAb 0.08 µg/mL [6]: 77% | residual hCCL1 (100 nM) Gi2 response, protocol #2, mAb 0.4 µg/mL [6]: 66% | residual hCCL1 (100 nM) Gi2 response, protocol #2, mAb 10 µg/mL [6]: 41% | residual hCCL1 (100 nM) Gi2 response, protocol #3, mAb 0.05 µg/mL [6]: 73% | residual hCCL1 (100 nM) Gi2 response, protocol #3, mAb 0.5 µg/mL [6]: 52% | residual hCCL1 (100 nM) Gi2 response, protocol #3, mAb 5 µg/mL [6]: 37% | extrapolated top plateau of hCCL1 curve with 5 µg/mL mAb, protocol #3 [7]: 366000 % of hCCL1 (100 nM) | % hCCR8 internalization with CCL1 300 nM, mAb 1 µg/ml (HTRF) [8]: 44% | % hCCR8 internalization with CCL1 300 nM, mAb 10 µg/ml (HTRF) [8]: 36% | binding result [9]: binds | binding result [10]: binds | binding result [11]: binds | binding result [12]: binds | binding result [13]: binds | binding result [14]: binds | binding result [15]: binds | binding result [16]: binds | % of labelled cells [3]: 88% | EC50 [3]: 0.2 nM | IC50 [17]: 0.04 µg/mL | Ki [17]: 0.02 µg/mL
B4: anti-CCR8 mAb 1-24 (antibody, human IgG1, kappa, V domains shown)
VH: QVQLQQSGPEVVKPGASVKVSCKTSGYTFTEYTIHWVRQSHGQSLEWVGGINPNNGNTRYDQKFKGRVTITIDKSSSTAYMELRSLTSEDTAVYYCARVARSSGSGPYAMDYWGQGTTVTVSS
VL: DVVMTQSPLSLPVTLGDQASISCRCSQSLLHTNGDTYLHWYLQRPGQSPRLLIYKVSNRFSGVPDRFSGSGSGTDFTLKISRVEAEDVGVYFCSQSTHVPYTFGGGTKVEIKR
notes: as for B3
